Targets include HLA-A*02:02; HLA-A*02:06; HLA-A*02:03.
Holding throughout (test): IEDB peptide-MHC binding, purified MHC/competitive/radioactivity; filed as Kd, often an IC50 or EC50 that approximates it; ≥ and ≤ were set here for values at or beyond the usual limits of such assays
The mark [1] stands for this setting: source organism: Vaccinia virus WR.
[2] abbreviates: source organism: Vaccinia virus Copenhagen.
[3] abbreviates: source organism: Dengue virus 2 Jamaica/1409/1983.
Setting [4] is: source organism: SARS coronavirus Tor2.
Setting [5] is: source organism: Mammarenavirus brazilense.
[6] abbreviates: source organism: Lymphocytic choriomeningitis virus (strain Armstrong).

In the case of GLKIEEIEKV, the values for the dissociation constant (Kd) in the experiment with HLA-A*02:02 (setting [1]), in the experiment with HLA-A*02:06 (setting [1]) and in the experiment with HLA-A*02:03 (setting [1]) were 14.9 nM, 198 nM and 6.61 nM, respectively.
For LVSKHWELT the same measures were 12200 nM, at least 77100 nM and 14900 nM.
For CVRLNNPVIL the same measures were 8560 nM, at least 45100 nM and 5400 nM.
As to NLFDIPLLT, the figures for the equilibrium dissociation constant (Kd) with HLA-A*02:02 (setting [2]), in the experiment with HLA-A*02:06 (setting [2]) and with HLA-A*02:03 (setting [2]) were 135 nM, 1540 nM and 36.3 nM, respectively.
Take DQTHIKTIAV: the dissociation constant (Kd) in the experiment with HLA-A*02:02 (setting [1]) came out at 2170 nM; in the experiment with HLA-A*02:06 (setting [1]), 1000 nM; with HLA-A*02:03 (setting [1]), 390 nM.
For SLCPTKKLV, in that order: 3160 nM, 11900 nM and 2660 nM.
For LLTDTIESA the same measures were 16.6 nM, 5.88 nM and 10.5 nM.
In the case of GMCCIITASI, the Kd in the experiment with HLA-A*02:03 (setting [3]) amounted to 84.1 nM.
Turning to YLGIFKNNDV, the Kd in the experiment with HLA-A*02:02 (setting [1]) worked out at 14.8 nM; in the experiment with HLA-A*02:06 (setting [1]), 285 nM; with HLA-A*02:03 (setting [1]), 16.9 nM.
For the sequence TVQEFIFSAL, the Kd stood at 80.7 nM with HLA-A*02:02 (setting [1]), 43.9 nM with HLA-A*02:06 (setting [1]) and 90 nM in the experiment with HLA-A*02:03 (setting [1]).
For the sequence ALVSGTATA, the Kd with HLA-A*02:02 (setting [4]) stood at 4.63 nM; in the experiment with HLA-A*02:06 (setting [4]) it was 269 nM; with HLA-A*02:03 (setting [4]), 8.1 nM.
For the sequence RVLYDEFVTI, the Kd with HLA-A*02:02 (setting [1]) was 153 nM; in the experiment with HLA-A*02:06 (setting [1]) it was 6.62 nM; in the experiment with HLA-A*02:03 (setting [1]) it was 178 nM.
As for IVILFIMFM, the Kd in the experiment with HLA-A*02:02 (setting [1]) amounted to 1860 nM; with HLA-A*02:06 (setting [1]) it was 741 nM; in the experiment with HLA-A*02:03 (setting [1]) it was 1680 nM.
As for VTPEYIKDL, the equilibrium dissociation constant (Kd) in the experiment with HLA-A*02:02 (setting [1]) was 10400 nM; with HLA-A*02:06 (setting [1]), 1760 nM; in the experiment with HLA-A*02:03 (setting [1]), at least 78100 nM.
For DTEFINKFL the same measures were 7420 nM, at least 77100 nM and at least 42700 nM.
For LLDEPLSPDT, the dissociation constant Kd with HLA-A*02:02 (setting [1]) amounted to 8510 nM; with HLA-A*02:06 (setting [1]) it was 7840 nM; in the experiment with HLA-A*02:03 (setting [1]), 10100 nM.
For VTLNRIKIA the same measures were 13300 nM, 625 nM and 407 nM.
For WLKDSAIMV the same measures were 191 nM, 2280 nM and 27.9 nM.
As to YLPEVISTIA, the values for the Kd with HLA-A*02:02 (setting [1]), in the experiment with HLA-A*02:06 (setting [1]) and in the experiment with HLA-A*02:03 (setting [1]) were 10.9 nM, 17.7 nM and 0.955 nM, respectively.
For SQIFNIISYI the same measures were 61.7 nM, 23.5 nM and 181 nM.
Regarding IAIFNNRNLA, the dissociation constant (Kd) in the experiment with HLA-A*02:02 (setting [1]) is 3360 nM; with HLA-A*02:06 (setting [1]) it was 890 nM; in the experiment with HLA-A*02:03 (setting [1]), 1480 nM.
On to FVVNGHTCM, for which the Kd worked out at 6640 nM in the experiment with HLA-A*02:02 (setting [1]), 1810 nM with HLA-A*02:06 (setting [1]) and 5900 nM with HLA-A*02:03 (setting [1]).
Turning to PLNEAIMAV, the Kd in the experiment with HLA-A*02:03 (setting [3]) was found to be 18.3 nM.
With FMTATPPGAT, in the experiment with HLA-A*02:03 (source organism: Dengue virus 4 Philippines/H241/1956), the dissociation constant Kd turned out to be 29.4 nM.
Consider VTYNIKPVIV, for which the equilibrium dissociation constant (Kd) is 4920 nM in the experiment with HLA-A*02:02 (setting [1]), 358 nM with HLA-A*02:06 (setting [1]) and 116 nM in the experiment with HLA-A*02:03 (setting [1]).
For DLNRMPTDML the same measures were 1250 nM, at least 47500 nM and 2190 nM.
As for SLFPLCLSTT, the Kd with HLA-A*02:03 (source organism: Dengue virus 1 Brazil/97-11/1997) is 0.3 nM.
For the sequence KQLGQVMLLI, the Kd in the experiment with HLA-A*02:06 (setting [3]) is 11 nM.
Regarding VIVPDIKLDA, the Kd with HLA-A*02:02 (setting [1]) was at least 33500 nM; with HLA-A*02:06 (setting [1]), 883 nM; with HLA-A*02:03 (setting [1]), at least 21400 nM.
As to SIFVSTMPV, the results for the Kd with HLA-A*02:02 (setting [1]), in the experiment with HLA-A*02:06 (setting [1]) and with HLA-A*02:03 (setting [1]) were 37.5 nM, 81.9 nM and 6.58 nM, respectively.
On to RLAANAICSA, for which the Kd with HLA-A*02:03 (setting [3]) worked out at 127 nM.
Take CTSEIQNVT: the dissociation constant (Kd) was determined as 188 nM with HLA-A*02:02 (setting [1]), 10200 nM in the experiment with HLA-A*02:06 (setting [1]) and 5180 nM with HLA-A*02:03 (setting [1]).
As to RSASGGVYL, the Kd came out at 278 nM with HLA-A*02:02 (setting [5]), 13600 nM in the experiment with HLA-A*02:06 (setting [5]) and 14500 nM with HLA-A*02:03 (setting [5]).
For VTSPLTGNNT, the values for the dissociation constant Kd with HLA-A*02:02 (setting [1]), with HLA-A*02:06 (setting [1]) and in the experiment with HLA-A*02:03 (setting [1]) were 1450 nM, 5130 nM and 2500 nM, respectively.
With SLVSKHWELT, the dissociation constant Kd turned out to be 409 nM in the experiment with HLA-A*02:02 (setting [1]), 2680 nM with HLA-A*02:06 (setting [1]) and 34.6 nM with HLA-A*02:03 (setting [1]).
On to NIKISLNEI, for which the Kd stood at 1670 nM with HLA-A*02:02 (setting [1]), 1500 nM with HLA-A*02:06 (setting [1]) and 31 nM in the experiment with HLA-A*02:03 (setting [1]).
For YLSDSDNIKI the same measures were 16.3 nM, 906 nM and 109 nM.
Turning to KCMSAALKNL, the equilibrium dissociation constant (Kd) was 57.9 nM with HLA-A*02:02 (setting [6]), 14000 nM with HLA-A*02:06 (setting [6]) and 192 nM with HLA-A*02:03 (setting [6]).
